Experimental data: doi:10.1101/2025.01.24.634737

What was measured:
[1] = biological target: microtubules grown from purified bovine brain tubulin (bovine) (UniProt Q6B856); experiment: optical trap rupture force assay; untreated purified kinetochores on anti-penta-His beads (via Dsn1-6His-3M3DK), attached to the growing tips of coverslip-anchored microtubules; force ramp 0.25 pN/s until detachment; BRB80, 1 mM GTP, 23 °C
[2] = biological target: microtubules grown from purified bovine brain tubulin (bovine) (UniProt Q6B856); experiment: optical trap rupture force assay; kinetochores purified in the presence of benzonase, on anti-penta-His beads (via Dsn1-6His-3M3DK), attached to the growing tips of coverslip-anchored microtubules; force ramp 0.25 pN/s until detachment; BRB80, 1 mM GTP, 23 °C

UniProt Q6B856, sequence (Q6B856 whole entry, looked up): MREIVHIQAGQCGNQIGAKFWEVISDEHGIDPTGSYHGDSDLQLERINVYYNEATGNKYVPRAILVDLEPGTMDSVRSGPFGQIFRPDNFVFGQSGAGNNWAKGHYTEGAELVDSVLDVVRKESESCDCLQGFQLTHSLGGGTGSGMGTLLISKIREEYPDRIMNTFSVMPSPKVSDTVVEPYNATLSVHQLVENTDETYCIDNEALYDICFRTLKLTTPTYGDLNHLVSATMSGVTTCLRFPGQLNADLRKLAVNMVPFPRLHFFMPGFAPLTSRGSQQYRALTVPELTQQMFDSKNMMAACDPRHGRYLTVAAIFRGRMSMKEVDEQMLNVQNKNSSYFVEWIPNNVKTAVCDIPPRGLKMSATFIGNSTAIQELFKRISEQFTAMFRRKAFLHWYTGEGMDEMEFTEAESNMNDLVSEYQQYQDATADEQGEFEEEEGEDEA

| Substance | median rupture force [1] | median rupture force [2] |
| --- | --- | --- |
| native S. cerevisiae kinetochore particles purified via Dsn1-6xHis-3xM3DK (from UniProt P40568 1-576) (complex) | 7.2 | – |
| native K. marxianus kinetochore particles purified via Dsn1-6His-3M3DK (from UniProt A0ABX6F0Z3 1-547) (complex) | 7.5 pN | 6.4 pN |
